Test results taken from patent publication US7361741 (LIPTON DIVISION OF CONOPCO, dated 2008).
Changes are numbered by the printed parent chain.

Columns and labels:
Human Pancreatic Lipase [1] = target: T1, Human Pancreatic Lipase (human, UniProt P16233 17-465, in ELISA and phage selections: biotin (EZ link NHS-biotin) on free NH2-groups, molar ratio biotin to lipase 15 to 1; not biotinylated in the enzyme activity assay); experiment: ELISA, yeast culture medium on biotinylated HPL captured by streptavidin
T1 construct: mature; Natural enzyme purified from a human source; In ELISA it was captured as biotinylated HPL on coated streptavidin; also called HPL; biotinylated HPL
T1 sequence (looked up): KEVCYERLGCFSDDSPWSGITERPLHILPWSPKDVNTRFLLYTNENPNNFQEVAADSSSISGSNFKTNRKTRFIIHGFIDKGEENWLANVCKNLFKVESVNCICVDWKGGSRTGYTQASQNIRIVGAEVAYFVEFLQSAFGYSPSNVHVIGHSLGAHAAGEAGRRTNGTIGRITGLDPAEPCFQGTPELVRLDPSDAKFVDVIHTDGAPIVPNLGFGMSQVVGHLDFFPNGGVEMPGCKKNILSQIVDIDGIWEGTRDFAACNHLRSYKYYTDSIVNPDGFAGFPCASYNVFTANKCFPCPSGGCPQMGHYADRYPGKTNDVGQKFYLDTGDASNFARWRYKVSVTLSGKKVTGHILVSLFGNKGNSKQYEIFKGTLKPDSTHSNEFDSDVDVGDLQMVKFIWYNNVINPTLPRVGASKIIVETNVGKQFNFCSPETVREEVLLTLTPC
Experimental: For ELISA in vitro biotinylated HPL (prepared as described in paragraph 2.2) was immobilised indirectly via streptavidin. Streptavidin was coated at 5 µg/ml in Phosphate Buffered Saline (PBS) during two hours at room temperature in MAXISORB plates (NUNC). The coat solution was removed and, after washing with 0.05 vol % Tween-20 in PBS (PBST), the wells were blocked during 30 minutes at room temperature with a 4 wt % skimmed milk solution made in PBS. Biotinylated HPL was captured by the coated streptavidin during 16 hours at 4° C. from a solution with a concentration of 2.5 µg/ml enzyme in PBST, followed by washing of the plate with PBTS to remove free biotinylated HPL.
Two clones from each construct were grown for 24 hours at 30° C. in YNB medium (0.67% Yeast Nitrogen without amino acids (Difio)) containing 2% glucose. For V_HH gene expression both pre-cultures were diluted 1/10 in 1 ml of YPD medium (1% yeast extract, 2% peptone, 2% glucose, 2% galactose) for induction of the GAL7 promoter and grown during 48 hours at 30° C. using 8 wells culture plates for cultivation. The V_HH production in the medium fraction of these clones was examined by analysis on a Coomassie blue stained polyacrylamide gel. Their functional characteristics were confirmed in ELISA on indirectly immobilised biotinylated HPL and in the lipase enzyme activity assay.

Human Pancreatic Lipase [2] = target: T1, Human Pancreatic Lipase; experiment: phage display selection in solution with biotinylated HPL, capture on streptavidin beads
Experimental: Free V_HH fragments were removed by precipitation of phage from the culture supernatant with PEG6000, thereby avoiding a disturbing competition between phage bound and free V_HH fragments. "In solution" capture of *E. coli* phage exposing HPL specific antibody fragments was performed with in vitro biotinylated lipase (EZ link NHS-biotin) covalently coupled to free NH_2-groups of the lipase according to the instructions of the supplier; the molar ratio between biotin and lipase was 15 to 1). For selection 15 nM and 40 nM Human Pancreatic Lipase was used in round one and 0.6 nM and 3 nM in round two. The carboxy terminal domain was prepared by proteolysis with chymotrypsin and purified with reversed phase HPLC. Lipase was biotinylated and used for selection of the immune library (combined short hinge and long hinge) at 15 and 70 nM during round one and at 1 and 3 and 15 nM during round two. During the binding phase of the selection "application conditions" (inclusion of 5.3 mM cholic acid and 36 mM deoxycholate) were used.

Human Pancreatic Lipase [3] = target: T1, Human Pancreatic Lipase; experiment: ELISA on biotinylated HPL, E. coli and yeast produced VHH
protein A = target: T2, protein A (UniProt P38507 37-477); experiment: affinity chromatography on protein A sepharose
T2 construct: also called protein A sepharose (Pharmacia)

B1: HPL#15 (VHH)
VHH: QVQLQESGGGLVQAGGSLRLSCAASGSISSINVMGWFRQAPGKQRELVASITSGGSTNYADSLKGRFTISRDNAKNAVYLQMNNLKPEDTAVYYCNAHITPAGSSNYVYGYWGHGTKVTVSS
notes: Llama VHH; E. coli form (pUR5095): with hinge and myc-tag; Yeast forms: PstI/BstEII fragment, untagged (pUR1403) or with myc/His6 tags (pUR5097); also called anti-HPL VHH fragment HPL#15
Human Pancreatic Lipase [1]
  binding result: binds

B2: HPL#12 (VHH)
VHH: QVQLQESGGGLVQAGGSLRLSCAASGSIGSIHTMGWYRQTPGKERDVVATIQDGGSTNYADSVKGRFTISRDNTLNTVYLQMNDLKPEDTAVYYCNADVRPYRTSRYLEVWGQGTLVTVSS
notes: Llama VHH produced in E. coli from the phagemid, with hinge and C-terminal myc-tag; also called anti-HPL VHH fragment HPL#12
Human Pancreatic Lipase [2]
  binding result: binds

B3: HPL#14 (VHH)
VHH: B2 VHH with K43T, T74I, D84S, Y94H, V110L
notes: Llama VHH; Yeast form (pUR5265): PstI/NotI fragment including the hinge region, followed by myc- and hexahistidine tags; also called anti-HPL VHH fragment HPL#14
Human Pancreatic Lipase [1]
  binding result: binds

B4: HPL#13 (VHH)
VHH: QVQLQESGGGLVQAGGSLRLSCAASGTILSIIYMDWYRQTPGKQRELVGRITAGGSTNYADSAKGRFTISKDNAKNTVYLQMNSLKPEDTAVYYCNALITRWDKSVNDYWGQGTQVTVSS
notes: Llama VHH; E. coli form (pUR5082): with hinge and myc-tag; Yeast forms: PstI/BstEII fragment, untagged (pUR5090) or with myc/His6 tags (pUR5098); also called anti-HPL VHH fragment HPL#13
Human Pancreatic Lipase [3]
  binding result: binds

B5: HPL#19 (VHH)
VHH: QVQLQDSGGGLVQTGGSLRLSCAASGPIGDVYLMGWYRQAPGKQREMVASITATGPPNYTDSVKGRFTISRDNDKNTEYLQMNNLKPEDTAVYYCNAQVRVRFSSDYTNYWGQGTQVTVSSEPKTPKPQP
notes: Llama VHH; E. coli form (pUR5087): with hinge and myc-tag; Yeast forms: PstI/BstEII fragment, untagged (pUR5093) or with myc/His6 tags (pUR5264); also called anti-HPL VHH fragment HPL#19
Protein A
  binding result: no binding
Human Pancreatic Lipase [1]
  binding result: binds

B6: HPL#18 (VHH)
VHH: QVQLQDSGGGLVQAGGSLRLSCAASGTIGDIYTMAWHRQAPGKERELVASATESGSPNYADPVKGRFTISRDNGKLTVYLQMNSLKPEDTAVYYCNALIRRKFTSEYNEYWGQGTQVTVSS
notes: Llama VHH; E. coli form (pUR5086): with hinge and myc-tag; Yeast forms: PstI/BstEII fragment, untagged (pUR5092) or with myc/His6 tags (pUR5263); also called anti-HPL18; αHPL18
Human Pancreatic Lipase [1]
  binding result: binds

B7: HPL#11 (VHH)
VHH: QVQLQDSGGGLVQAGGSLRLSCAASGSIFSSDLMGWYRQAPGKEREAVARITRGGTTSYADSVKGRFTISRDNAKNTMYLQMNSLKPEDTAVYYCNARRSNYDRSWGDYWGQGTQVTVSS
notes: Llama VHH; E. coli form (pUR5084): VHH with hinge and C-terminal myc-tag; Yeast forms: PstI/BstEII VHH fragment, untagged (pUR5091) or with myc-tag and hexahistidine tail (pUR5099); also called anti-HPL VHH fragment HPL#11
Human Pancreatic Lipase [2]
  binding result: binds
